According to patent US20150351390A1, “COMPOSITIONS AND METHODS FOR AUXIN-ANALOG CONJUGATION” (PIONEER HI-BRED INTERNATIONAL, INC., priority 2012, published 2015):

B1: ZmACL52529: GH3 protein, accession ACL52529 (protein)
chain: MSTSHARVKSDSNNGRTRTCDDGGSSGTSGGERKLMPAIADEMDRRSLLYSLLMPVMSQAVPGLDRGRCMYLYFVKAESRTPGGHPARPVLTSFYRSRHFLERPHDPYTVHTSPDEAVLCVDAYQSMYAQLLCGLVHRADVLRVGAVFASGFLRAIRFLEKHWQRLCRDLRRGALGAEVTDRSVRAAVARVLRADPALADAVEAECARPSWQGIIRRVWPGTKYIDVIVTGAMAQYIPTLEFYGGGLPLTCTMYASSESYFGINLNPMCKPSEVAYTLIPTMCYFEFLPLPQPGPGGTDDADPDHRDLVDLVDVKLGHEYELVVTTYSGLYRYRVGDVLRVAGFKNQAPMFKFLRRKNVVLSIDSDKTDEAELHAAVSGAVQHLAPFGASLVEYTSYADAGTIPGHYVLFWELRLRAGDVPVPVPASVFEDCCLAVEEALNSVYRQGRAADRSIGPLEIRVVSDGTFDRLMDYALARGASINQYKVPRCVHPGPVVELLDGRVQASYVSPKCPKWSPGGGKQWSSDAAAKKPAAAAGSNNGGGAVVA
modifications: Zea mays
B2: ZmACL54563: GH3 protein, accession ACL54563 (protein)
chain: MPEAPVVTMRDTAAAAPPATHRDLLEYIERVTAGAAQVQRRVLSEILAQNAPAEYLRRLGVSGAAPGAVEAFRRAAPLVTYEDILPDVLRIANGDTSPILSGKPIREFLTSSGTSGGERKLMPAIADEMDRRSLLYSLLMPVMSQAVPGLDRGRCMYLYFVKAGSRTPGGHPARPVLTSFYRSRHFLERPHDPYTVHTSPDEAVLCVDAYQSMYAQLLCGLVHRADVLRVGAVFASGFLRAIRFLEKHWQRLCRDLRRGALGAEVTDRSVRAAVARVLRADPALADAVEAECARPSWQGIIRRVWPGTKYIDVIVTGAMAQYIPTLEFYGGGLPLTCTMYASSESYFGINLNPMCKPSEVAYTLIPTMCYFEFLPLPQPGPGGTDDADPDHRDLVDLVDVKLGHEYELVVTTYSGLYRYRVGDVLRVAGFKNQAPMFKFLRRKNVVLSIDSDKTDEAELHAAVSGAVQHLAPFGASLVEYTSYADAGTIPGHYVLFWELRLRAGDVPVPVPASVFEDCCLAVEEALNSVYRQGRAADRSIGPLEIRVVSDGTFDRLMDYALARGASINQYKVPRCVHPGPVVELLDGRVQASYVSPKCPKWSPGGGKQWSSDAAAKKPAAAAGSNNGGGAVVA
modifications: Zea mays
B3: ZmACN32133: GH3 protein, accession ACN32133 (protein)
chain: MAPTTATAAAVGTKATALGVAACERDVEKLEFIEDKTRNFDAEQVRVLAEILARNNGAEYLRRHGMEGRTDRLAFKACVPVVTYEDLRPEIERIANGDRSNIISSHPITEFLTSSGTSAGERKLMPTIEDELNRRQMLYSLLMPVMNLYVPGLDKGKGLYFLFIKSETKTPGGLPARPVLTSYYKSDHFKHRPYDPYNVYTSPTAAILCTDSFQSMYSQMLCGLVARAEVLRVGAVFASGLLRAIRFLQLHWQELAHDLRTGTLSAKVTEPSIREAVAEVLRPDAGLADLVEAECGKESWEGIITRVWPNTKYLDVIVTGAMAQYIPTLKYYSGGLPMACTMYASSECYFGLNLRPMCDPSEVSYTIMPNMGYFELLPHDPDAVPPSRDDPPPRLLDLADAEVGRDYELVITTYAGLCRYRVGDILHVTGFHNAAPQFRFVRRKNVLLSVDSDKTDEAELQAAVERAARLLAPYDAAIAEYTSQADATTIPGHYVVYWELMVREGGASPDAAVFERCCLEMEEALNAVYRQGRNGDAIGPLEIRVVRGGTFEEVMDYAISRGASINQYKAPRCVSFGPIIELLNSRVVSSHFSPACPTYSPHKK
modifications: Zea mays
B4: AIGH3-1: GH3 protein, accession XP_002885948 (protein, listed as Arabidopsis lyrata)
chain: MAVDSNLSSPLGPPACEKDAKALRFIEEMTRNADTVQENLLAEILARNANTEYLRRFNLGGATDRDTFKTKIPVITYEDLQPEIQRIADGDRSPILSSHPISEFLTSSGTSAGERKLMPTIREELDRRQLLYSLLMPVMNLYVPGLDKGKGMYFLFVKSESKTPGGLPARPVLTSYYKSEHFRSRPYDPYNVYTSPNEAILCPDSFQSMYTQMLCGLLDRLSVLRVGAVFASGLLRAIRFLQLHWSRFANDIELGCLDSEITDPSIRQCMSGILKPDPVLAEFIRRECKSDNWERIITRIWPNTKYLDVIVTGAMAQYIPTLEYYSGGLPMACTMYASSECYFGLNLNPMSKPSEVSYTIMPNMAYFEFIPLGGTKAVELVDVKIGKEYELVVTTYAGLCRYRVGDILRVTGFHNSAPQFHFVRRKNVLLSIDSDKTDESELQKAVENASKILHEECGSRVAEYTSYADTSTIPGHYVLYWELLVRDGARQPSHETITRCCLEMEESLNSVYRQSRVADNSVGPLEIRVVRNGTFEELMDYAISRGASINQYKVPRCVNFTPIVELLDSRVVSAHFSPSLPHWTPERRRR
B5: SmXP_002973755: GH3 protein, accession XP_002973755 (protein, listed as Selaginella moellendorffii)
chain: MNLEHKEREKQALQFIEKVTSEAAEVQSAVLSAILERNAHTEYLKRHGLNGRTDKTSFRQCLPVITYEDLEPEIQRIANGDTSPILSAHPISEFLTSSGTSAGQRKLMPTISEEFERRCLLYSLLMPVMNQYLPGLDQGKGMYLFFIKSEAKTPGGLLARPVLTSYYKSRYFTERPYDPCNVYTSPNETVLCPDAHQSMYCQLLCGLLQRHEVLRMGAVFASGFLRAIRFLETHWRELCDDIRAGGLNELVVDAAARRAVLALMPRPDPALADDIAEQCRKESWAGIIARLWPNTKYIDVIVTGTMAQYIPTLDYYSGGLPLVCTMYASSECYFGINLQPLCPPSEVSYTLLPNMAYFEFLPIKPKSGKSKAPRVPDPSELVELVDVKMGHEYELVITTYAGLCRYRVGDILRVTGFHNSAPQFAFVCRKNVVLSIDSDKTGEEDLAKAVRSATAGIESSYGARLIEYTSYADTTTIPGHYVLFWELRSSSPIPKDVLEECCLAIEESLDSVYRQGRVSDRSIGPLEIKVVKPGTFDQLMDYALSRGASINQYKTPRCVKFTPIVELLNARVVSSYFSPRLPKWSPVRPQWANSNGVH
B6: ZmACI46149: GH3 protein, accession ACI46149 (protein)
chain: MAVMAEVVSTTGAALRSPASQQPAAAGAAKGTDAEKLQFIEDMTSNVDAVQERVLGEILARNADTEYLAGRCGLAGATDRATFRAKVPMATYEDLQPYIRRIADGDRSPILSGHPVSEFLTSSGTSGGERKLMPTIEDELNRRQLLYSLQMPVMNLYVPGMDKGKALHFLFVKSETKTPGGLAARPVLTSYYKSNHFRNRPFDAYNNYTSPTAAILCADAFQSMYAQMVCGLCQRQDVLRVGAVFASGLLRAIRFLQLNWEQLADDIEAGSLTPRVTDPSVREAVAGILRPDPAVAELVRSECSGGDWAGIVTRIWPNTKYLDVIVTGAMAQYIPTLKHYSGGLPMACTMYASSECYFGLNLRPMCDPSEVSYTLMPNMCYFEFLPMGGAVDASQLVDLARVERGREYELVITTYAGLNRYRVGDVLQVTGFHNSAPQFRFVRRKNVLLSIESDKTDEAELQRAVERASALLRPHGAAVVEYTSQAYTKSIPGHYVVYWELLQAKGGAAVDGETLEGCCLEMEEALNAVYRQSRVADGSIGPLEIRVVRPGTFEELMDYAISRGASINQYKVPRCVTFPPIIELLDSRVVSSHLSPALPHWTAGQRSDSD
modifications: Zea mays
B7: OsGH3-13: GH3 protein, accession EAY81150 (protein, listed as Oryza sativa)
chain: MTSTSSENALDHDHDHDASSPAPATATAAALPPMIPACDPHDGPACLELIEVLTTRAAAVQRRVLAEVLAMNTGTDYLRRFLGDEVAAAAGGEDELAAAFKERVPVVEYEDVKPYIERIANGAPSSLISSKPITELLTSSGTSGGQPKLMPATEEELDRKTFLYNLLVPVMNKYVEGLDEGRGMYLLFVKPEITTASGMVARPVLTSYYKSRHFRRRPDSPYTRYTSPDAAILCPDSRQSMYAQLLCGLARRGEVLRVGAVFASAFLRAVKFLEGHWRALCADIRAGRADPAVVTDAACRGAVDAVLAARADPDLADAIAAECGGASWRGIVRRLWPRTKYIDVIVTGSMAQYIPLLEFYGGGLPLVSTMYASSESYFGINLRPLDPPEEVVYTLLPNMCYYEFIKVEKDGDGEKVRDGEVVDLVGVEVGAYYELVVTTFTGLYRYRVGDILQVAGFHNAAPQFRFVHRRNVVLSVDTDKTSEDDLLRAVTAAKPLLDPLSCVLAEYTAYADTSSIPGHYVLFWELTPSPSPPPPPCHDDANDAADIGEDKDKVAHVMAACCAAVEAGLDSVYRRCRSRDRSIGPLEIRVVAPGAFDALMDMCVSHGSSVNQYKTPRCIKHPDAIAVLEQRVVGRFFSDAVPHWEPLKVDGAAAAPATGSDQ

Experiment: LC-MS assay of GH3 conjugation of IAA with Asp or Glu
Format: biochemical
Conditions: conjugation of IAA with Asp by recombinant GH3 protein; IAA-Asp product by LC-MS
Method in brief: (§1)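 N-terminal His-tagged GH3 homologs, expressed in E. coli C41(DE3) and Ni-NTA purified, at 44 to 164 μg/mL incubated 3 h at 30 °C in 20 mM Tris-HCl pH 8.0, 5 mM MgCl2, 1 mM DTT, 5 mM ATP, 5 mM auxin (IAA, 2,4-D or dicamba) and 5 mM Asp or Glu. Conjugates quantified by LC-MS against standards after MeOH precipitation; kinetics from Michaelis-Menten fits of initial velocities.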

| Molecule | kcat (hrs−1) IAA-Asp [h⁻¹] |
| --- | --- |
| B1 | 0.000 |
| B2 | 522.629 |
| B3 | 876.059 |
| B4 | 436.828 |
| B5 | 220.320 |
| B6 | 684.072 |
| B7 | 10.812 |

Same assay, conditions: conjugation of IAA with Glu by recombinant GH3 protein; IAA-Glu product by LC-MS

| Molecule | kcat (hrs−1) IAA-Glu [h⁻¹] |
| --- | --- |
| B1 | 2.149 |
| B2 | 26.015 |
| B3 | 83.547 |
| B4 | 14.961 |
| B5 | 9.285 |
| B6 | 26.467 |
| B7 | 494.321 |

Experiment: LC-MS assay of GH3 conjugation of 2,4-D with Asp or Glu
Format: biochemical
Conditions: conjugation of 2,4-D with Asp by recombinant GH3 protein; 2,4-D-Asp product by LC-MS; 5 mM 2,4-D substrate
Method in brief: as §1

| Molecule | kcat (hrs−1) 2,4-D-Asp [h⁻¹] |
| --- | --- |
| B1 | 0.000 |
| B2 | 3.255 |
| B3 | 0.602 |
| B4 | 2.057 |
| B5 | 1.076 |
| B6 | 2.892 |
| B7 | 0.639 |

Same assay, conditions: conjugation of 2,4-D with Glu by recombinant GH3 protein; 2,4-D-Glu product by LC-MS; 5 mM 2,4-D substrate

| Molecule | kcat (hrs−1) 2,4-D-Glu [h⁻¹] |
| --- | --- |
| B1 | 0.000 |
| B2 | 0.993 |
| B3 | 0.241 |
| B4 | 0.525 |
| B5 | 0.431 |
| B6 | 0.355 |
| B7 | 5.237 |
